# B1: D24.1M01 with the germline CDRL2 (YGN) (antibody, V domains shown)
# VH: QVTLRESGPALVKPTQTLTLTCTISGLSLTTSGVCVSWIRQPPGKALEWLALIDWDDDKYYSTSLRTRLTISKDISKNQVVLTMTNMDPVDTATFFCARTRCTSNWGYYFDSWGRGTRVTVSS
# VL: QSVLTQPPSVSGAPGQRVTISCTGSASNIGAGYDVHWYQQVPGAAPKLLIYGNSNRPSGVPDRISGSKSGTSASLAISGLQAEDEADYYCQSYDDSLRGWVFGGGTKLTVL
# How the values were obtained:
# [1] = biological target: soluble HPV16 L1 capsomer (human papillomavirus type 16 (HPV16)); experiment: cryo-EM structure
# [2] = biological target: HPV16 L1 (as in the HPV16L1 binding assays and on pseudovirus psV16) (Human papillomavirus type 16; L1 of …, UniProt J3SRV0); experiment: cell-based or functional assay
# Sequence of HPV16 L1 (as in the HPV16L1 binding assays and on pseudovirus psV16) (P03101 whole entry): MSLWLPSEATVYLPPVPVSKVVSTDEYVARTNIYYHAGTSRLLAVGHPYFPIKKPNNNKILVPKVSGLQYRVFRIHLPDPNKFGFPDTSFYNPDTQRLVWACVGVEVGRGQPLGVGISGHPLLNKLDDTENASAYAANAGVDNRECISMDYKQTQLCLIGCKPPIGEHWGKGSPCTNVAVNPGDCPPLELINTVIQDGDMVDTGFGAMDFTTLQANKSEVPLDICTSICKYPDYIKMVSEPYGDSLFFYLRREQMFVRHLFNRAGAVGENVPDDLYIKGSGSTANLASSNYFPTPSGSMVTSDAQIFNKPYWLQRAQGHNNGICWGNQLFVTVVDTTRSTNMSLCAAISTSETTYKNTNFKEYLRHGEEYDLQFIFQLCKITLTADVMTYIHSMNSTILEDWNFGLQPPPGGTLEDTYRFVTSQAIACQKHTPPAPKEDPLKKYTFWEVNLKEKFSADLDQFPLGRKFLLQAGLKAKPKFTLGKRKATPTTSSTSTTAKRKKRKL
Molecule,stoichiometry N [1],"psV16 neutralization, fold increase of IC50 against the mature antibody [2] [fold]"
soluble HPV16 L1 capsomer (complex),5,
B1,,5.3

# Source: publication PMC12551957, “Human monoclonal antibodies to HPV16 show evidence for common developmental pathways and public epitopes” (PLOS Pathogens, 2025)
